According to patent publication US6991908B1, “Antiobestic agents methods for screening antiobestic agents and kits comprising same” (Takeda Chemical Industries, Ltd., priority 1998, dated 2006):
Positions of bridges follow the written chain, without caps; N, C: chain ends. No end group written: not given here. *: point of attachment. X1 = 3‑(4-hydroxy-3-iodophenyl)propionyl, O=C(CCc1ccc(O)c(I)c1)*

Assays:
Assay type in all cases: biochemical
[1] = target: T1, rat SLC-1 (Rattus norvegicus, UniProt P97639); test: Inhibition of MCH-induced GTPγS binding by the method of Example 21 (compound plus MCH); conditions: read-out: IC50 calculated from the binding inhibition rate (%)
T1 construct: expressed in transfected cells; host or cells: CHO dhfr- cells, plasmid pAKK0-SLC-1, mainly clone #44
T1 sequence (P97639 whole entry): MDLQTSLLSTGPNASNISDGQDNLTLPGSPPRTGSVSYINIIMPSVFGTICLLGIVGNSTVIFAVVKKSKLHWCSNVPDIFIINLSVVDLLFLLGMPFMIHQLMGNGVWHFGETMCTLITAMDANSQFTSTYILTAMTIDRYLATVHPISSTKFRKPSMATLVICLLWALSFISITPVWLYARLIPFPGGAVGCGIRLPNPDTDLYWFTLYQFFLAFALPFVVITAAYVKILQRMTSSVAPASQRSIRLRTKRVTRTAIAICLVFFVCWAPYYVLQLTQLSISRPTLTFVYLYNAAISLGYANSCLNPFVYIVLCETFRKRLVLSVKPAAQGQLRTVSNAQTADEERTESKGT
Procedure: The IC50(nM) of the compound (1) supra
(§1) A rat SLC-1-expression CHO cell membrane fraction was prepared by the following procedure. Rat SLC-1-expression CHO cells (1×10^8 cells) were suspended in phosphate buffered saline (pH 7.4) supplemented with 5 mM EDTA (ethylene diamine tetra acetic acid) followed by centrifugation. after 10 ml of a homogenate buffer (10 mM NaHCO3, 5 mM EDTA, pH 7.5) was added to the cell pellets, the mixture was homogenized with a polytron homogenizer. the homogenate was then centrifuged at 400×g for 15 minutes. the resulting supernatant was further centrifuged at 100,000×g for an hour to give membrane fraction precipitates. the precipitates were suspended in 2 ml of an assay buffer (50 mM Tris-HCl (pH 7.5), 1 mM EDTA, 0.1% BSA (bovine serum albumin), 10 mM MgCl2, 100 mM NaCl, 1 μM GDP (guanosine 5′-diphosphate), 0.25 mM PMSF (phenylmethylsulfonyl fluoride), 1 μg/ml pepstatin, 20 μg/ml leupeptin, 10 μg/ml phosphoramidon). the suspension was centrifuged at 100,000×g for an hour. the cell membrane recovered as precipitates was resuspended in 20 ml of the assay buffer. after dispensing, the suspension was stored at −80° C., which maybe thawed every time upon use.

[2] = target: T2, human SLC-1 (Homo sapiens, UniProt Q99705); test: Agonist activity of Bolton-Hunter derivatized MCHs by GTPγS binding assay (Example 22); conditions: membrane fraction given as human SLC-1-expression CHO; FIG. 8
T2 construct: expressed in transfected cells; host or cells: CHO dhfr- cells, plasmid pAKK0-hSLC-1(S) or pAKK0-hSLC-1(L)
T2 sequence (Q99705 with tags, fused parts or gaps): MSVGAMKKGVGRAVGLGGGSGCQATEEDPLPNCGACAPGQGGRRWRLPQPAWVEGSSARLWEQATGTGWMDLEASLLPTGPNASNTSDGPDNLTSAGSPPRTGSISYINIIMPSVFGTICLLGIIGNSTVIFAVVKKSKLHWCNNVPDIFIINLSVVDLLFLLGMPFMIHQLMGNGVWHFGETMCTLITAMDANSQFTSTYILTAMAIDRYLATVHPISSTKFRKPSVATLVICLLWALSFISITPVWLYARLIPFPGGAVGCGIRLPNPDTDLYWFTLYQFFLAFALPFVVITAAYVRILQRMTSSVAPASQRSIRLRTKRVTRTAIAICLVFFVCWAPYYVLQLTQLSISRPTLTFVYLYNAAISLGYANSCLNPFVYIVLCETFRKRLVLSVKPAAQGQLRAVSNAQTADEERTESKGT

[3] = target: T1, rat SLC-1; test: Agonist activity by GTPγS binding assay, rat SLC-1-expression CHO cell membrane fraction (Example 21); conditions: rat SLC-1 membrane, FIG. 7
Procedure: as §1

Compound `COc1ccc(-c2ccc(C(=O)Nc3ccc4c(c3)CCC(CN(C)C)C4)cc2)cc1` (stereo not shown) [compound (1), N-[2-(N,N-Dimethylamino)methyl-6-tetralinyl]-(4′-methoxybiphenyl-4-yl)carboxamide] has an IC50 [1] of 40 nM.

In the case of “BH-MCH(3-19): MCH(3-19) derivatized with a non-isotope Bolton-Hunter reagent (X1-DMLRCMLGRVYRPCWQV; disulfide 5-14)”, the “amount of [35S]-GTPγS bound (agonist activity), dose dependence” value (“amount of [35S]-GTPγS bound” for short) [2] is reported as “increased dose-dependently”.

For “Met-Leu-Arg-Cys-Met-Leu-Gly-Arg-Val-Tyr-Arg-Pro-Cys-Trp -Gln-Val (MLRCMLGRVYRPCWQV; disulfide 4-13) [MCH(4-19)]”, the “agonist activity as compared to that of MCH” value [3] was “almost the same agonist activity”.

“Leu-Arg-Cys-Met-Leu-Gly-Arg-Val-Tyr-Arg-Pro-Cys-Trp-Gln -Val-OH (LRCMLGRVYRPCWQV-OH; disulfide 3-12; N-terminus assumed; SMILES CSCC[C@@H]1NC(=O)[C@@H](NC(=O)[C@H](CCCNC(=N)N)NC(=O)[C@@H](N)CC(C)C)CSSC[C@@H](C(=O)N[C@@H](Cc2c[nH]c3ccccc23)C(=O)N[C@@H](CCC(N)=O)C(=O)N[C@H](C(=O)O)C(C)C)NC(=O)[C@@H]2CCCN2C(=O)[C@H](CCCNC(=N)N)NC(=O)[C@H](Cc2ccc(O)cc2)NC(=O)[C@H](C(C)C)NC(=O)[C@H](CCCNC(=N)N)NC(=O)CNC(=O)[C@H](CC(C)C)NC1=O) [MCH(5-19)]” was tested, and the “agonist activity as compared to that of MCH” value [3] was “almost the same agonist activity”.

In the case of “Asp-Met-Leu-Arg-Cys-Met-Leu-Gly-Arg-Val-Tyr-Arg-Pro-Cys -Trp-Gln-Val (DMLRCMLGRVYRPCWQV; disulfide 5-14) [MCH(3-19)]”, the “agonist activity as compared to that of MCH” value [3] is reported as “almost the same agonist activity”.

In the case of “Des-[Asp^1, Phe^2, Asp^3, Met, Leu^5]-MCH (RCMLGRVYRPCWQV; disulfide 2-11) [MCH(6-19)]”, the “decrease of agonist activity as compared to that of MCH” value [3] is reported as “approximately 10 times”.

“BH-MCH(2-19): MCH(2-19) derivatized with a non-isotope Bolton-Hunter reagent (X1-FDMLRCMLGRVYRPCWQV; disulfide 6-15)” was tested, and the “amount of [35S]-GTPγS bound” value [2] was “increased dose-dependently”.

In the case of “[N-(3-(4-Hydroxy-3-iodophenyl)propionyl)-Met^4]-MCH(4-19) (X1-MLRCMLGRVYRPCWQV; disulfide 4-13) [BH-MCH(4-19)]”, the “amount of [35S]-GTPγS bound” value [2] is reported as “increased dose-dependently”.

“BH-MCH(5-19): MCH(5-19) derivatized with a non-isotope Bolton-Hunter reagent (X1-LRCMLGRVYRPCWQV; disulfide 3-12)” was tested, and the “amount of [35S]-GTPγS bound” value [2] was “increased dose-dependently”.

“Phe-Asp-Met-Leu-Arg-Cys-Met-Leu-Gly-Arg-Val-Tyr-Arg-Pro -Cys-Trp-Gln-Val (FDMLRCMLGRVYRPCWQV; disulfide 6-15) [MCH(2-19)]” was tested, and the “agonist activity as compared to that of MCH” value [3] was “almost the same agonist activity”.
